From patent publication US11306156

How the values were obtained:
[1] = target: D3H44 Fab heavy chain L124E_L143E_K145M, C-terminal ABD2-His6 tag; experiment: LCCA co-expression, SPR tag read-out; DNA 1:3 norm. to 1:1; competing light chain m8
[2] = target: D3H44 Fab heavy chain L124E_L143E_K145T, C-terminal ABD2-His6 tag; experiment: as above
[3] = target: D3H44 Fab heavy chain L124R_S186K, C-terminal ABD2-His6 tag; experiment: as above
[4] = target: D3H44 Fab heavy chain L124E_L143E_K145T, C-terminal ABD2-His6 tag; experiment: LCCA (co-expression, SPR read-out of light chain tags), L1:L2 DNA 1:3 normalised to 1:1; competitor m10
[5] = target: D3H44 Fab heavy chain L124R_S186R, C-terminal ABD2-His6 tag; experiment: as above
[6] = target: D3H44 Fab heavy chain L124E_L143D_K145T, C-terminal ABD2-His6 tag; experiment: LCCA (co-expression, SPR read-out of light chain tags), L1:L2 DNA 1:3 normalised to 1:1; competitor m11
[7] = target: D3H44 Fab heavy chain L124R_S186K, C-terminal ABD2-His6 tag; experiment: as above
[8] = target: D3H44 Fab heavy chain L124E_L143D_K145M, C-terminal ABD2-His6 tag; experiment: LCCA set 9199 (co-expression; SPR read-out of light-chain tags; L1:L2 DNA 1:3, normalized to 1:1); competing light chain m13
[9] = target: D3H44 Fab heavy chain L124E_L143D_K145T, C-terminal ABD2-His6 tag; experiment: LCCA set 9217 (co-expression; SPR read-out of light-chain tags; L1:L2 DNA 1:3, normalized to 1:1); competing light chain m10
[10] = target: D3H44 Fab heavy chain L124E_L143E_K145M, C-terminal ABD2-His6 tag; experiment: LCCA set 9253 (co-expression; SPR read-out of light-chain tags; L1:L2 DNA 1:3, normalized to 1:1); competing light chain m11
[11] = target: D3H44 Fab heavy chain L124R_S186K, C-terminal ABD2-His6 tag; experiment: LCCA set 9473 (co-expression; SPR read-out of light-chain tags; L1:L2 DNA 1:3, normalized to 1:1); competing light chain m10
[12] = target: D3H44 Fab heavy chain L124R_S186K, C-terminal ABD2-His6 tag; experiment: LCCA set 9484 (co-expression; SPR read-out of light-chain tags; L1:L2 DNA 1:3, normalized to 1:1); competing light chain m13
[13] = target: D3H44 Fab heavy chain L124R_S186R, C-terminal ABD2-His6 tag; experiment: LCCA set 9526 (co-expression; SPR read-out of light-chain tags; L1:L2 DNA 1:3, normalized to 1:1); competing light chain m11
[14] = target: D3H44 Fab heavy chain L124R_S186R, C-terminal ABD2-His6 tag; experiment: LCCA co-expression, SPR tag read-out; DNA 1:3 norm. to 1:1; competing light chain m8
[15] = target: D3H44 Fab heavy chain L124E_L143E_K145M, C-terminal ABD2-His6 tag; experiment: LCCA (co-expression, SPR read-out of light chain tags), L1:L2 DNA 1:3 normalised to 1:1; competitor m10
[16] = target: D3H44 Fab heavy chain L124R_S186K, C-terminal ABD2-His6 tag; experiment: as above
[17] = target: D3H44 Fab heavy chain L124E_L143D_K145M, C-terminal ABD2-His6 tag; experiment: LCCA (co-expression, SPR read-out of light chain tags), L1:L2 DNA 1:3 normalised to 1:1; competitor m11
[18] = target: D3H44 Fab heavy chain L124R_S186R, C-terminal ABD2-His6 tag; experiment: as above
[19] = target: D3H44 Fab heavy chain L124E_L143D_K145M, C-terminal ABD2-His6 tag; experiment: LCCA set 9176 (co-expression; SPR read-out of light-chain tags; L1:L2 DNA 1:3, normalized to 1:1); competing light chain m10
[20] = target: D3H44 Fab heavy chain L124E_L143D_K145M, C-terminal ABD2-His6 tag; experiment: LCCA set 9196 (co-expression; SPR read-out of light-chain tags; L1:L2 DNA 1:3, normalized to 1:1); competing light chain m13
[21] = target: D3H44 Fab heavy chain L124E_L143D_K145T, C-terminal ABD2-His6 tag; experiment: LCCA set 9214 (co-expression; SPR read-out of light-chain tags; L1:L2 DNA 1:3, normalized to 1:1); competing light chain m10
[22] = target: D3H44 Fab heavy chain L124E_L143E_K145M, C-terminal ABD2-His6 tag; experiment: LCCA set 9257 (co-expression; SPR read-out of light-chain tags; L1:L2 DNA 1:3, normalized to 1:1); competing light chain m10
[23] = target: D3H44 Fab heavy chain L124R_S186K, C-terminal ABD2-His6 tag; experiment: LCCA set 9451 (co-expression; SPR read-out of light-chain tags; L1:L2 DNA 1:3, normalized to 1:1); competing light chain m10
[24] = target: D3H44 Fab heavy chain L124R_S186K, C-terminal ABD2-His6 tag; experiment: LCCA set 9461 (co-expression; SPR read-out of light-chain tags; L1:L2 DNA 1:3, normalized to 1:1); competing light chain m13
[25] = target: D3H44 Fab heavy chain L124R_S186R, C-terminal ABD2-His6 tag; experiment: LCCA set 9505 (co-expression; SPR read-out of light-chain tags; L1:L2 DNA 1:3, normalized to 1:1); competing light chain m10

In the case of “D3H44 light chain V133G_S176D_T178D_T180E, N-terminal HA or FLAG tag”, the H1L1:H1L2 normalized median ratio (% (ratio normalized to 100)) [1] was 5, the H1L1:H1L2 normalized median ratio (% (ratio normalized to 100)) [2] was 4 and the H2L2:H2L1 normalized median ratio (% (ratio normalized to 100)) [3] was 90. The H1L1:H1L2 normalized median ratio [4] was 4%, the H2L2:H2L1 normalized median ratio [5] was 80% and the H1L1:H1L2 normalized median ratio [6] was 11%. It also gave an H2L2:H2L1 normalized median ratio [7] of 92%, an H1L1:H1L2 normalized median ratio (H1L2 part) [8] of 13% and an H1L1:H1L2 normalized median ratio (H1L2 part) [9] of 18%. It also gave an H1L1:H1L2 normalized median ratio (H1L2 part) [10] of 5%, an H2L2:H2L1 normalized median ratio (H2L2 part) [11] of 93% and an H2L2:H2L1 normalized median ratio (H2L2 part) [12] of 92%. It also gave an H2L2:H2L1 normalized median ratio (H2L2 part) [13] of 80%.

For “D3H44 light chain Q124E_V133G_S176D_T178D_T180E, N-terminal HA or FLAG tag”, the H1L1:H1L2 normalized median ratio (% (ratio normalized to 100)) [1] was 5, the H1L1:H1L2 normalized median ratio (% (ratio normalized to 100)) [2] was 4 and the H2L2:H2L1 normalized median ratio (% (ratio normalized to 100)) [14] was 88. The H1L1:H1L2 normalized median ratio [15] was 5%, the H1L1:H1L2 normalized median ratio [4] was 4% and the H2L2:H2L1 normalized median ratio [16] was 82%. For the same substance, the H1L1:H1L2 normalized median ratio [17] was 12%, the H1L1:H1L2 normalized median ratio [6] was 14% and the H2L2:H2L1 normalized median ratio [18] was 94%. For the same substance, the H1L1:H1L2 normalized median ratio (H1L2 part) [19] was 17%, the H1L1:H1L2 normalized median ratio (H1L2 part) [20] was 12% and the H1L1:H1L2 normalized median ratio (H1L2 part) [21] was 15%. For the same substance, the H1L1:H1L2 normalized median ratio (H1L2 part) [22] was 16%, the H2L2:H2L1 normalized median ratio (H2L2 part) [23] was 93% and the H2L2:H2L1 normalized median ratio (H2L2 part) [24] was 89%. For the same substance, the H2L2:H2L1 normalized median ratio (H2L2 part) [25] was 94%.
